Target: Biotinylated Human Thrombin (human) (UniProt P00734)
Experiment: mRNA display selection on biotinylated human thrombin, round 2; NGS read frequency

mRNA-displayed cow antibody scaffold polypeptide with cassette RTKIK*NGL* (designed binder)
counts: 86 counts | percentage (%): 0.0052%

— patent US20160312212A1, “COW ANTIBODY SCAFFOLD POLYPEPTIDE METHOD AND COMPOSITION” (Roche Sequencing Solutions, Inc., priority 2015, published 2016)
